Numbering of substitutions follows the chain as printed.
B1: GLS3000 K50A (antibody, name in Kabat numbering, V domains shown)
VH: QVQLVESGGGVVQPGRSLRLSCAASGFTFSNAWMHWVRQAPGKGLEWVAQIKAKSNNYATYYAESVKGRFTISRDDSKNSLYLQMNSLKTEDTAVYYCRYVHYGAYYGVDAWGQGTTVTVSS
VL: DIVMTQSPLSLPVTPGEPASISCRSSQSLVHSNRNTYLHWYQQKPGQAPRLLIYAVSNRFSGVPDRFSGSGSGTDFTLKISRVEAEDVGVYYCGQGTQVPYTFGQGTKLEIK
notes: one-arm format as m2
B2: GLS3000 L27bM (antibody, name in Kabat numbering, V domains shown)
VH: B1 VH
VL: B1 VL with L29M, A55K
notes: one-arm format as m2
B3: GLS3000 K50L (antibody, name in Kabat numbering, V domains shown)
VH: B1 VH
VL: B1 VL with A55L
notes: one-arm format as m2
B4: GLS3000 N28S (antibody, name in Kabat numbering, V domains shown)
VH: B1 VH
VL: B1 VL with N33S, A55K
notes: one-arm format as m2
B5: GLS3000 N28I (antibody, name in Kabat numbering, V domains shown)
VH: B1 VH
VL: B1 VL with N33I, A55K
notes: one-arm format as m2
B6: GLS3000 L33P (antibody, name in Kabat numbering, V domains shown)
VH: B1 VH
VL: B1 VL with L38P, A55K
notes: one-arm format as m2
B7: GLS3000 L33V (antibody, name in Kabat numbering, V domains shown)
VH: B1 VH
VL: B1 VL with L38V, A55K
notes: one-arm format as m2
B8: GLS3000 L27bS (antibody, name in Kabat numbering, V domains shown)
VH: B1 VH
VL: B1 VL with L29S, A55K
notes: one-arm format as m2
B9: GLS3000 L27bV (antibody, name in Kabat numbering, V domains shown)
VH: B1 VH
VL: B1 VL with L29V, A55K
notes: one-arm format as m2
B10: GLS3000 L27bF (antibody, name in Kabat numbering, V domains shown)
VH: B1 VH
VL: B1 VL with L29F, A55K
notes: one-arm format as m2
B11: GLS3000 N28T (antibody, name in Kabat numbering, V domains shown)
VH: B1 VH
VL: B1 VL with N33T, A55K
notes: one-arm format as m2
B12: GLS3000 K74T (antibody, name in Kabat numbering, V domains shown)
VH: B1 VH
VL: B1 VL with A55K, K79T
notes: one-arm format as m2
B13: GLS3000 L33A (antibody, name in Kabat numbering, V domains shown)
VH: B1 VH
VL: B1 VL with L38A, A55K
notes: one-arm format as m2
B14: GLS3000 N28F (antibody, name in Kabat numbering, V domains shown)
VH: B1 VH
VL: B1 VL with N33F, A55K
notes: one-arm format as m2
B15: GLS3000 L33D (antibody, name in Kabat numbering, V domains shown)
VH: B1 VH
VL: B1 VL with L38D, A55K
notes: one-arm format as m2
B16: GLS3000 L33E (antibody, name in Kabat numbering, V domains shown)
VH: B1 VH
VL: B1 VL with L38E, A55K
notes: one-arm format as m2
B17: GLS3000 L27bE (antibody, name in Kabat numbering, V domains shown)
VH: B1 VH
VL: B1 VL with L29E, A55K
notes: one-arm format as m2
B18: GLS3000 L27bY (antibody, name in Kabat numbering, V domains shown)
VH: B1 VH
VL: B1 VL with L29Y, A55K
notes: one-arm format as m2
B19: GLS3000 L33F (antibody, name in Kabat numbering, V domains shown)
VH: B1 VH
VL: B1 VL with L38F, A55K
notes: one-arm format as m2
B20: GLS3000 N28M (antibody, name in Kabat numbering, V domains shown)
VH: B1 VH
VL: B1 VL with N33M, A55K
notes: one-arm format as m2
B21: GLS3000 K50S (antibody, name in Kabat numbering, V domains shown)
VH: B1 VH
VL: B1 VL with A55S
notes: one-arm format as m2
B22: GLS3000 N28K (antibody, name in Kabat numbering, V domains shown)
VH: B1 VH
VL: B1 VL with N33K, A55K
notes: one-arm format as m2
B23: GLS3000 N28H (antibody, name in Kabat numbering, V domains shown)
VH: B1 VH
VL: B1 VL with N33H, A55K
notes: one-arm format as m2
B24: GLS3000 K107E (antibody, name in Kabat numbering, V domains shown)
VH: B1 VH
VL: B1 VL with A55K, K112E
notes: one-arm format as m2
B25: GLS3000 K50D (antibody, name in Kabat numbering, V domains shown)
VH: B1 VH
VL: B1 VL with A55D
notes: one-arm format as m2
B26: GLS3000 L33M (antibody, name in Kabat numbering, V domains shown)
VH: B1 VH
VL: B1 VL with L38M, A55K
notes: one-arm format as m2
B27: GLS3000 N28L (antibody, name in Kabat numbering, V domains shown)
VH: B1 VH
VL: B1 VL with N33L, A55K
notes: one-arm format as m2
B28: GLS3000 N28A (antibody, name in Kabat numbering, V domains shown)
VH: B1 VH
VL: B1 VL with N33A, A55K
notes: one-arm format as m2
B29: GLS3000 L33I (antibody, name in Kabat numbering, V domains shown)
VH: B1 VH
VL: B1 VL with L38I, A55K
notes: one-arm format as m2
B30: GLS3000 N28E (antibody, name in Kabat numbering, V domains shown)
VH: B1 VH
VL: B1 VL with N33E, A55K
notes: one-arm format as m2
B31: GLS3000 N28D (antibody, name in Kabat numbering, V domains shown)
VH: B1 VH
VL: B1 VL with N33D, A55K
notes: one-arm format as m2
B32: GLS3000 K50Q (antibody, name in Kabat numbering, V domains shown)
VH: B1 VH
VL: B1 VL with A55Q
notes: one-arm format as m2
B33: GLS3000 L27bP (antibody, name in Kabat numbering, V domains shown)
VH: B1 VH
VL: B1 VL with L29P, A55K
notes: one-arm format as m2
B34: GLS3000 K50T (antibody, name in Kabat numbering, V domains shown)
VH: B1 VH
VL: B1 VL with A55T
notes: one-arm format as m2
B35: GLS3000 K50R (antibody, name in Kabat numbering, V domains shown)
VH: B1 VH
VL: B1 VL with A55R
notes: one-arm format as m2
B36: GLS3000 N28P (antibody, name in Kabat numbering, V domains shown)
VH: B1 VH
VL: B1 VL with N33P, A55K
notes: one-arm format as m2
B37: GLS3000 N28G (antibody, name in Kabat numbering, V domains shown)
VH: B1 VH
VL: B1 VL with N33G, A55K
notes: one-arm format as m2
B38: GLS3000 N28V (antibody, name in Kabat numbering, V domains shown)
VH: B1 VH
VL: B1 VL with N33V, A55K
notes: one-arm format as m2
B39: GLS3000 K50Y (antibody, name in Kabat numbering, V domains shown)
VH: B1 VH
VL: B1 VL with A55Y
notes: one-arm format as m2
B40: GLS3000 L27bD (antibody, name in Kabat numbering, V domains shown)
VH: B1 VH
VL: B1 VL with L29D, A55K
notes: one-arm format as m2
B41: GLS3000 K50P (antibody, name in Kabat numbering, V domains shown)
VH: B1 VH
VL: B1 VL with A55P
notes: one-arm format as m2
B42: GLS3000 L27bW (antibody, name in Kabat numbering, V domains shown)
VH: B1 VH
VL: B1 VL with L29W, A55K
notes: one-arm format as m2
B43: GLS3000 K50G (antibody, name in Kabat numbering, V domains shown)
VH: B1 VH
VL: B1 VL with A55G
notes: one-arm format as m2
B44: GLS3000 L27bI (antibody, name in Kabat numbering, V domains shown)
VH: B1 VH
VL: B1 VL with L29I, A55K
notes: one-arm format as m2
B45: GLS3000 K50E (antibody, name in Kabat numbering, V domains shown)
VH: B1 VH
VL: B1 VL with A55E
notes: one-arm format as m2
B46: GLS3000 N28Q (antibody, name in Kabat numbering, V domains shown)
VH: B1 VH
VL: B1 VL with N33Q, A55K
notes: one-arm format as m2

molecular target: CD3ε homodimer protein (human, UniProt P07766 23-126, limits assumed); assay: SPR, immobilized CD3ε homodimer;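 also: biacore T200 surface plasmon resonance at 25 °C, antibody variants flowed as analytes over amine-coupled CD3ε homodimer on a CM4 chip, variant binding amount divided by that of GLS3000 antibody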
Sequence (P07766 23-126 limits assumed): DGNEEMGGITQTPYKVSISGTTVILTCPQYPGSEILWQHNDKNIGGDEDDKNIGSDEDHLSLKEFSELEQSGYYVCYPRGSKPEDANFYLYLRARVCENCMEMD
Method: Each one-amino acid altered form constructed, expressed, and purified in the paragraph (6-2) was evaluated using Biacore T200 (GE Healthcare Japan Corp.). An appropriate amount of CD3ε homodimer protein was immobilized onto Sensor chip CM4 (GE Healthcare Japan Corp.) by the amine coupling method. Then, the antibody having an appropriate concentration was injected thereto as an analyte and allowed to interact with the CD3ε homodimer protein on the sensor chip. Then, the sensor chip was regenerated by the injection of 10 mmol/L glycine-HCl (pH 1.5). The assay was conducted at 25° C., and HBS-EP+ (GE Healthcare Japan Corp.) was used as a running buffer. […] Each parameter was calculated using Biacore T200 Evaluation Software (GE Healthcare Japan Corp.).
Specifically, when the amount of the GLS3000-containing antibody bound was defined as X and the amount of the L chain one-amino acid altered form bound was defined as Y, a value of Z (ratio of amounts bound)=Y/X was used.

ratio of amounts bound (vs GLS3000) | Binder
0.23 | B1
0.71 | B2
0.24 | B3
0.32 | B4
0.44 | B5
0.3 | B6
1.05 | B7
0.71 | B8
1.12 | B9
0.42 | B10
0.45 | B11
0.84 | B12
0.85 | B13
0.46 | B14
0.17 | B15
0.72 | B16
0.17 | B17
0.25 | B18
0.78 | B19
0.39 | B20
0.23 | B21
0.44 | B22
0.42 | B23

ratio of amounts bound (vs GLS3000) | Binder
0.94 | B24
0.22 | B25
0.93 | B26
0.39 | B27
0.25 | B28
0.83 | B29
0.4 | B30
0.19 | B31
0.18 | B32
0.91 | B33
0.19 | B34
0.5 | B35
0.36 | B36
0.46 | B37
0.36 | B38
0.24 | B39
0.17 | B40
0.3 | B41
0.26 | B42
0.16 | B43
1.19 | B44
0.24 | B45
0.37 | B46

Reference: patent US20220040297A1 (Chugai, published 2022)
